# From paper doi:10.1101/2025.04.23.650119
# Molecular target: α-conotoxin ImII (Conus imperialis)
# Assay: cryo-EM structure
substance,measurement,value
α-conotoxin ImII (peptide),stoichiometry N,2
